Source: US20070060497A1, “Reagents for modifying biopharmaceuticals, the use and production thereof” (priority 2003, published 2007)

How the values were obtained:
trypsin = assay: Peptidolytic activity of trypsin (α-benzoylarginine-para-nitroanilide, 405 nm); assay type: biochemical
Excerpt: (§1) Determining the enzyme activities: L-asparaginase catalyzes the deamidation of L-asparagine to form L-aspartic acid. In order to determine the enzyme activity, ammonium which was being released in this reaction was quantified using Neβler reagent. Streptokinase activates plasminogen. Plasminogen which has been activated in this way catalyzes the hydrolysis of the tripeptide derivative D-Val-Leu-Lys-para-nitroanilide (S-2251). In order to indirectly determine the activity of streptokinase, the quantity of nitroaniline which was released was quantified photometrically at 405 nm. The para-nitroanilide derivative α-benzoylarginine-para-nitroanilide was used to determine the peptidolytic activity of trypsin, by photometrically quantifying the nitroaniline which was released at 405 nm.
Substance 16 (0.5 eq./1.5 μl, 1 eq./2.7 μl, 2 eq./5.4 μl, 5 eq./13.8 μl and, respectively, 10 eq./27.3 μl) dissolved in dimethyl sulfoxide (10 mg/ml) was added to 120 μl of a solution of trypsin (1.0 mg/ml) in sodium carbonate buffer (pH 8.5 to 9.5) and the mixture was made up to a total volume of 150 μl using sodium carbonate buffer (pH 8.5 to 9.5). The reaction mixture was incubated at 25° C. and 300 rpm for 1 h on a thermomixer. Excess substance 16 was then removed by means of filtration in centrifuge filtration units (10 kDa cut-off) using water as rinsing liquid.

L-asparaginase = target: T1, L-asparaginase (Escherichia coli, UniProt P00805); assay: L-asparaginase enzyme activity (ammonium released, quantified with Nessler reagent); assay type: biochemical
T1 construct: purchased ProThera
Excerpt: as §1
Substance 16 (0.5 eq./0.7 μl, 1 eq./1.4 μl, 2 eq./2.7 μl, 5 eq./6.8 μl, 10 eq./13.7 μl and, respectively, 20 eq./27.3 μl) dissolved in dimethyl sulfoxide (10 mg/ml) was added to 75 μl of a solution of L-asparaginase (0.5 mg/ml) in sodium carbonate buffer (pH 8.5 to 9.5) and the mixture was made up to a total volume of 150 μl using sodium carbonate buffer (pH 8.5 to 9.5). The reaction mixture was incubated at 25° C. and 300 rpm for 1 h on a thermomixer. Excess substance 16 was then removed by means of filtration in centrifuge filtration units (10 kDa cut-off) using water as rinsing liquid.

Row | Molecule | Residual activity (trypsin; 0.5 eqs. of 16 employed) | Residual activity (trypsin; 1 eq. of 16 employed) | Residual activity (trypsin; 2 eqs. of 16 employed) | Residual activity (trypsin; 5 eqs. of 16 employed) | Residual activity (trypsin; 10 eqs. of 16 employed, degree of modification 44%) | Residual activity (L-asparaginase; 0.5 eqs. of 16 employed) | Residual activity (L-asparaginase; 1 eq. of 16 employed) | Residual activity (L-asparaginase; 2 eqs. of 16 employed) | Residual activity (L-asparaginase; 5 eqs. of 16 employed) | Residual activity (L-asparaginase; 10 eqs. of 16 employed, degree of modification 41%) | Residual activity (L-asparaginase; 20 eqs. of 16 employed, degree of modification 43%)
1 | conjugate composed of trypsin and substance 16: conjugate composed of the compound according to the invention substance 16 and trypsin (conjugate, UniProt P00760 24-246, looked up, conjugated to substance 16, conjugate composed of the compound according to the invention substance 16 and trypsin) Serine protease 1: IVGGYTCGANTVPYQVSLNSGYHFCGGSLINSQWVVSAAHCYKSGIQVRLGEDNINVVEGNEQFISASKSIVHPSYNSNTLNNDIMLIKLKSAASLNSRVASISLPTSCASAGTQCLISGWGNTKSSGTSYPDVLKCLKAPILSDSSCKSAYPGQITSNMFCAGYLEGGKDSCQGDSGGPVVCSGKLQGIVSWGSGCAQKNKPGVYTKVCNYVSWIKQTIASN | 104% | 109% | 119% | 136% | 137% |  |  |  |  |  | 
2 | conjugate composed of L-asparaginase and substance 16: conjugate composed of the compound according to the invention substance 16 and L-asparaginase (conjugate, UniProt P00805 23-348, looked up, conjugated to substance 16, conjugate composed of the compound according to the invention substance 16 and L-asparaginase) L-asparaginase 2: LPNITILATGGTIAGGGDSATKSNYTVGKVGVENLVNAVPQLKDIANVKGEQVVNIGSQDMNDNVWLTLAKKINTDCDKTDGFVITHGTDTMEETAYFLDLTVKCDKPVVMVGAMRPSTSMSADGPFNLYNAVVTAADKASANRGVLVVMNDTVLDGRDVTKTNTTDVATFKSVNYGPLGYIHNGKIDYQRTPARKHTSDTPFDVSKLNELPKVGIVYNYANASDLPAKALVDAGYDGIVSAGVGNGNLYKSVFDTLATAAKTGTAVVRSSRVPTGATTQDAEVDDAKYGFVASGTLNPQKARVLLQLALTQTKDPQQIQQIFNQY |  |  |  |  |  | 100% | 100% | 92% | 87% | 75% | 60%
